# Assay results published in publication PMC11574045, “A cofactor-induced repressive type of transcription factor condensation can be induced by synthetic peptides to suppress tumorigenesis” (The EMBO Journal, 2024).
# System: HEK293FT cells transfected with TF library
# Test: Screening of TF condensates based on fluorescent puncta
# Type: cell-based
# Conditions: Figure 1B numerical data; TF library screen, one value per transcriptional factor
# Procedure, shortened: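 Each TF construct was introduced into HEK293FT cells using PEI at 4.8 μg/ml; glucose deprivation versus normal medium lasted 12 h. Automated confocal-style imaging of tagged TF staining, 50 fields per well, gave the puncta data.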
row,Molecule,Z score of condensed fraction
1,"TRERF1 (protein, UniProt Q96PN7 1-1200, looked up) Transcriptional-regulating …: MGDQQLYKTNHVAHGSENLFYQQPPLGVHSGLNHNYGNAVTGGGMDAPQASPISPHFPQDTRDGLGLPVGSKNLGQMDTSRQGGWGSHAGPGNHVQLRGNLANSNMMWGAPAQAEPTDGYQYTYSQASEIRTQKLTSGVLHKLDSFTQVFANQNLRIQVNNMAQVLHTQSAVMDGAPDSALRQLLSQKPMEPPAPAIPSRYQQVPQQPHPGFTGGLSKPALQVGQHPTQGHLYYDYQQPLAQVPVQGGQPLQAPQMLSQHMQQMQQHQYYPPQQQQQAGQQRISMQEIQTQPQQIRPSQPQPPPQQQQPQQLQLQQRQGSMQIPQYYQPQPMMQHLQEQQQQQMHLQPPSYHRDPHQYTPEQAHTVQLIPLGSMSQYYYQEPQQPYSHPLYQQSHLSQHQQREDSQLKTYSSDRQAQAMLSSHGDLGPPDTGMGDPASSDLTRVSSTLPHRPLLSPSGIHLNNMGPQHQQLSPSAMWPQMHLPDGRAQPGSPESSGQPKGAFGEQFDAKNKLTCSICLKEFKNLPALNGHMRSHGGMRASPNLKQEEGEKVLPPQPQPPLPPPPPPPPPPQLPPEAESLTPMVMPVSVPVKLLPPKPSSQGFTNSTVAAPSARDKPASSMSDDEMPVLEIPRKHQPSVPKAEEPLKTVQEKKKFRHRPEPLFIPPPPSYNPNPAASYSGATLYQSQLRSPRVLGDHLLLDPTHELPPYTPPPMLSPVRQGSGLFSNVLISGHGPGAHPQLPLTPLTPTPRVLLCRSNSIDGSNVTVTPGPGEQTVDVEPRINIGLRFQAEIPELQDISALAQDTHKATLVWKPWPELENHDLQQRVENLLNLCCSSALPGGGTNSEFALHSLFEAKGDVMVALEMLLLRKPVRLKCHPLANYHYAGSDKWTSLERKLFNKALATYSKDFIFVQKMVKSKTVAQCVEYYYTWKKIMRLGRKHRTRLAEIIDDCVTSEEEEELEEEEEEDPEEDRKSTKEEESEVPKSPEPPPVPVLAPTEGPPLQALGQPSGSFICEMPNCGAVFSSRQALNGHARIHGGTNQVTKARGAIPSGKQKPGGTQSGYCSVKSSPSHSTTSGETDPTTIFPCKECGKVFFKIKSRNAHMKTHRQQEEQQRQKAQKAAFAAEMAATIERTTGPVGAPGLLPLDQLSLIKPIKDVDILDDDVVQQLGGVMEEAEVVDTDLLLDDQDSVLLQGDAEL",-0.901
2,"TRIB3 (protein, UniProt Q96RU7 1-358, looked up) Tribbles homolog 3: MRATPLAAPAGSLSRKKRLELDDNLDTERPVQKRARSGPQPRLPPCLLPLSPPTAPDRATAVATASRLGPYVLLEPEEGGRAYQALHCPTGTEYTCKVYPVQEALAVLEPYARLPPHKHVARPTEVLAGTQLLYAFFTRTHGDMHSLVRSRHRIPEPEAAVLFRQMATALAHCHQHGLVLRDLKLCRFVFADRERKKLVLENLEDSCVLTGPDDSLWDKHACPAYVGPEILSSRASYSGKAADVWSLGVALFTMLAGHYPFQDSEPVLLFGKIRRGAYALPAGLSAPARCLVRCLLRREPAERLTATGILLHPWLRQDPMPLAPTRSHLWEAAQVVPDGLGLDEAREEEGDREVVLYG",-0.9785
3,"TLE2 (protein, UniProt Q04725 1-743, looked up) Transducin-like enhancer …: MYPQGRHPTPLQSGQPFKFSILEICDRIKEEFQFLQAQYHSLKLECEKLASEKTEMQRHYVMYYEMSYGLNIEMHKQAEIVKRLSGICAQIIPFLTQEHQQQVLQAVERAKQVTVGELNSLIGQQLQPLSHHAPPVPLTPRPAGLVGGSATGLLALSGALAAQAQLAAAVKEDRAGVEAEGSRVERAPSRSASPSPPESLVEEERPSGPGGGGKQRADEKEPSGPYESDEDKSDYNLVVDEDQPSEPPSPATTPCGKVPICIPARRDLVDSPASLASSLGSPLPRAKELILNDLPASTPASKSCDSSPPQDASTPGPSSASHLCQLAAKPAPSTDSVALRSPLTLSSPFTTSFSLGSHSTLNGDLSVPSSYVSLHLSPQVSSSVVYGRSPVMAFESHPHLRGSSVSSSLPSIPGGKPAYSFHVSADGQMQPVPFPSDALVGAGIPRHARQLHTLAHGEVVCAVTISGSTQHVYTGGKGCVKVWDVGQPGAKTPVAQLDCLNRDNYIRSCKLLPDGRSLIVGGEASTLSIWDLAAPTPRIKAELTSSAPACYALAVSPDAKVCFSCCSDGNIVVWDLQNQTMVRQFQGHTDGASCIDISDYGTRLWTGGLDNTVRCWDLREGRQLQQHDFSSQIFSLGHCPNQDWLAVGMESSNVEILHVRKPEKYQLHLHESCVLSLKFASCGRWFVSTGKDNLLNAWRTPYGASIFQSKESSSVLSCDISRNNKYIVTGSGDKKATVYEVVY",0.1994
4,"TOX2 (protein, UniProt Q96NM4 1-488, looked up) TOX high mobility group box …: MQQTRTEAVAGAFSRCLGFCGMRLGLLLLARHWCIAGVFPQKFDGDSAYVGMSDGNPELLSTSQTYNGQSENNEDYEIPPITPPNLPEPSLLHLGDHEASYHSLCHGLTPNGLLPAYSYQAMDLPAIMVSNMLAQDSHLLSGQLPTIQEMVHSEVAAYDSGRPGPLLGRPAMLASHMSALSQSQLISQMGIRSSIAHSSPSPPGSKSATPSPSSSTQEEESEVHFKISGEKRPSADPGKKAKNPKKKKKKDPNEPQKPVSAYALFFRDTQAAIKGQNPSATFGDVSKIVASMWDSLGEEQKQSSPDQGETKSTQANPPAKMLPPKQPMYAMPGLASFLTPSDLQAFRSGASPASLARTLGSKSLLPGLSASPPPPPSFPLSPTLHQQLSLPPHAQGALLSPPVSMSPAPQPPVLPTPMALQVQLAMSPSPPGPQDFPHISEFPSSSGSCSPGPSNPTSSGDWDSSYPSGECGISTCSLLPRDKSLYLT",2.501
5,"TOX (protein, UniProt O94900 1-526, looked up) Thymocyte …: MDVRFYPPPAQPAAAPDAPCLGPSPCLDPYYCNKFDGENMYMSMTEPSQDYVPASQSYPGPSLESEDFNIPPITPPSLPDHSLVHLNEVESGYHSLCHPMNHNGLLPFHPQNMDLPEITVSNMLGQDGTLLSNSISVMPDIRNPEGTQYSSHPQMAAMRPRGQPADIRQQPGMMPHGQLTTINQSQLSAQLGLNMGGSNVPHNSPSPPGSKSATPSPSSSVHEDEGDDTSKINGGEKRPASDMGKKPKTPKKKKKKDPNEPQKPVSAYALFFRDTQAAIKGQNPNATFGEVSKIVASMWDGLGEEQKQVYKKKTEAAKKEYLKQLAAYRASLVSKSYSEPVDVKTSQPPQLINSKPSVFHGPSQAHSALYLSSHYHQQPGMNPHLTAMHPSLPRNIAPKPNNQMPVTVSIANMAVSPPPPLQISPPLHQHLNMQQHQPLTMQQPLGNQLPMQVQSALHSPTMQQGFTLQPDYQTIINPTSTAAQVVTQAMEYVRSGCRNPPPQPVDWNNDYCSSGGMQRDKALYLT",-0.4918
6,"TIEG (protein, UniProt Q13118 1-480, looked up) Krueppel-like factor 10: MLNFGASLQQTAEERMEMISERPKESMYSWNKTAEKSDFEAVEALMSMSCSWKSDFKKYVENRPVTPVSDLSEEENLLPGTPDFHTIPAFCLTPPYSPSDFEPSQVSNLMAPAPSTVHFKSLSDTAKPHIAAPFKEEEKSPVSAPKLPKAQATSVIRHTADAQLCNHQTCPMKAASILNYQNNSFRRRTHLNVEAARKNIPCAAVSPNRSKCERNTVADVDEKASAALYDFSVPSSETVICRSQPAPVSPQQKSVLVSPPAVSAGGVPPMPVICQMVPLPANNPVVTTVVPSTPPSQPPAVCPPVVFMGTQVPKGAVMFVVPQPVVQSSKPPVVSPNGTRLSPIAPAPGFSPSAAKVTPQIDSSRIRSHICSHPGCGKTYFKSSHLKAHTRTHTGEKPFSCSWKGCERRFARSDELSRHRRTHTGEKKFACPMCDRRFMRSDHLTKHARRHLSAKKLPNWQMEVSKLNDIALPPTPAPTQ",1.047
7,"TOB1 (protein, UniProt P50616 1-345, looked up) Protein Tob1: MQLEIQVALNFIISYLYNKLPRRRVNIFGEELERLLKKKYEGHWYPEKPYKGSGFRCIHIGEKVDPVIEQASKESGLDIDDVRGNLPQDLSVWIDPFEVSYQIGEKGPVKVLYVDDNNENGCELDKEIKNSFNPEAQVFMPISDPASSVSSSPSPPFGHSAAVSPTFMPRSTQPLTFTTATFAATKFGSTKMKNSGRSNKVARTSPINLGLNVNDLLKQKAISSSMHSLYGLGLGSQQQPQQQQQPAQPPPPPPPPQQQQQQKTSALSPNAKEFIFPNMQGQGSSTNGMFPGDSPLNLSPLQYSNAFDVFAAYGGLNEKSFVDGLNFSLNNMQYSNQQFQPVMAN",-0.3688
